# Results from patent US20230235004A1 (published 2023).
# Residue numbers refer to the chain shown, from its start.
# T1: human MAdCAM expressed on cells (human, UniProt Q13477 19-382)
# T1 construct: whole, on cells
# T1 sequence (looked up): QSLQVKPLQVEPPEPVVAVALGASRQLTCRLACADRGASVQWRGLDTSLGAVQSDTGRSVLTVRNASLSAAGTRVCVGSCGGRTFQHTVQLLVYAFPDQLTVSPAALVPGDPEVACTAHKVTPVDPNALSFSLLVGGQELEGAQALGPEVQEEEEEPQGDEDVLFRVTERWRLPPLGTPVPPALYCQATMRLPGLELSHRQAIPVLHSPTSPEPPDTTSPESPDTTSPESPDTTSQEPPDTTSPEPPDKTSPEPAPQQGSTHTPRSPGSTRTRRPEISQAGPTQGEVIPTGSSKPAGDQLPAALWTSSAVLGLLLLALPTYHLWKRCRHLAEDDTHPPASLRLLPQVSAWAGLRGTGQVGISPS
# T2: mouse MAdCAM expressed on cells (mouse, UniProt Q61826 22-405)
# T2 construct: whole, on cells
# T2 sequence (looked up): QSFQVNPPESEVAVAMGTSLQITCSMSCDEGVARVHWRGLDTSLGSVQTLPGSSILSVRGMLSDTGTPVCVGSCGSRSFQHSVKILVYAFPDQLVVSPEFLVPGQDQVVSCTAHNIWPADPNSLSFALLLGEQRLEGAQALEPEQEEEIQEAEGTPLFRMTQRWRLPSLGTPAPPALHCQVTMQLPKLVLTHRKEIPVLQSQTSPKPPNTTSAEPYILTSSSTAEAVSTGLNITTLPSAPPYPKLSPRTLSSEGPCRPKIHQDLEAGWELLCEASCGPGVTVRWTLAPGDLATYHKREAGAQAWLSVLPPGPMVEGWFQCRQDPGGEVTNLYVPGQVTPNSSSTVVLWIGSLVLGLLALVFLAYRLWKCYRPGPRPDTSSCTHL
# B1: MAdCAM antibody Table 1 clone 27 (scFv)
# scFv: QVQLVQSGAEVKKPGASVKVSCKASGYTFTGYYIHWVRQAPGQGLEWMGWMNPNSGNTGYAQKFQGRVTMTRDTSTSTVYMELSSLRSEDTAVYYCARDPGFLGYCSGGSCYDGWFDPWGQGTLVTVSSGGGGSGGGGSGGGGSGGGGSDIQMTQSPSSLSASVGDRVTITCRASQSISSYLHWYQQKPGKAPKLLIYAASSLQSGVPSRFSGSGSGTDFTLTISSLQPEDFATYYCQQSYTAPYTFGQGTKLEIK
# B2: MAdCAM antibody Table 1 clone 17 (scFv)
# scFv: EVQLLESGGGLVQPGGSLRLSCAASGFTFSDSAMHWVRQAPGKGLEWVSAISGSGSTIYYADSVKGRFTISRDNSKNTLYLQMNSLRAEDTAVYYCVSDIAVAGHWYFDLWGRGTLVTVSSGGGGSGGGGSGGGGSGGGGSDIQMTQSPSSLSASVGDRVTITCRASQSISTFLNWYQQKPGKAPKLLIYAASRLEGGVPSRFSGSGSGTDFTLTISSLQPEDFATYYCQQANSFPLTFGPGTKVDIK
# B3: MAdCAM antibody Table 1 clone 21 (scFv)
# scFv: EVQLLESGGGLVQPGGSLRLSCAASGFTFSNAWMSWVRQAPGKGLEWVSTIVGNGGATYYADSVKGRFTISRDNSKNTLYLQMNSLRAEDTAVYYCARDNPLRWQGMDVWGQGTLVTVSSGGGGSGGGGSGGGGSGGGGSDIQMTQSPSSLSASVGDRVTITCRASQDISNYLNWYQQKPGKAPKLLIYAASSLQSGVPSRFSGSGSGTDFTLTISSLQPEDFATYYCQQSYSIPPTFGPGTKVDIK
# B4: MAdCAM antibody Table 1 clone 10 (scFv)
# scFv: QVQLVQSGAEVKKPGASVKVSCKASGYTLTTWYMYWVRQAPGQGLEWMGWINPNRGATNYAQKFQGRVTMTRDTSTSTVYMELSSLRSEDTAVYYCAKGDLWGAMDVWGQGTLVTVSSGGGGSGGGGSGGGGSGGGGSDIQMTQSPSSLSASVGDRVTITCRASDNIGSWLAWYQQKPGKAPKLLIYAASSLQSGVPSRFSGSGSGTDFTLTISSLQPEDFATYYCQQGYSTPPTFGQGTKVEIK
# B5: MAdCAM antibody Table 1 clone 26 (scFv)
# scFv: B4 scFv with L113T
# B6: MAdCAM antibody Table 1 clone 16 (scFv)
# scFv: EVQLLESGGGLVQPGGSLRLSCAASGFTFEDYAMHWVRQAPGKGLEWVSYLNSDGGSTSYADSVKGRFTISRDNSKNTLYLQMNSLRAEDTAVYYCAKDYCTNGVCAFDYWGQGTLVTVSSGGGGSGGGGSGGGGSGGGGSDIQMTQSPSSLSASVGDRVTITCRASQSISTYLNWYQQKPGKAPKLLIYDASNLETGVPSRFSGSGSGTDFTLTISSLQPEDFATYYCQQSYTIPITFGQGTRLEIK
# B7: MAdCAM antibody Table 1 clone 30 (scFv)
# scFv: B4 scFv
# B8: MAdCAM antibody Table 1 clone 25 (scFv)
# scFv: B4 scFv
# B9: MAdCAM antibody Table 1 clone 8 (scFv)
# scFv: EVQLLESGGGLVQPGGSLRLSCAASGFMFGDYAMHWVRQAPGKGLEWVSAISGSGGSTYYADSVKGRFTISRDNSKNTLYLQMNSLRAEDTAVYYCAKDLVVAGIWYFDLWGRGTLVTVSSGGGGSGGGGSGGGGSGGGGSDIQMTQSPSSLSASVGDRVTITCRASQGISNNLNWYQQKPGKAPKLLIYDASSLESGVPSRFSGSGSGTDFTLTISSLQPEDFATYYCQQTHSFPSTFGQGTKLEIK
# B10: MAdCAM Antibody Table 2 clone 72 (antibody, V domains shown)
# VH: QVQLVQSGAEVKKPGASVKVSCKASGYTFTSYYMHWVRQAPGQGLEWMGVINPIGGTTTYAQKFQGRVTMTRDTSTSTVYMELSSLRSEDTAVYYCASGAPSYYYYGMDVWGQGTLVTVSS
# VL: DIQMTQSPSSLSASVGDRVTITCRASQSISSYLNWYQQKPGKAPKLLIYGTSYLATGVPSRFSGSGSGTDFTLTISSLQPEDFATYYCQQSYSTPLTFGQGTKVEIK
# notes: IgG format
# B11: MAdCAM Antibody Table 2 clone 80 (antibody, V domains shown)
# VH: EVQLLESGGGLVQPGGSLRLSCAASGFTFDDYAMHWVRQAPGKGLEWVSAISGSGGSTYYADSVKGRFTISRDNSKNTLYLQMNSLRAEDTAVYYCAKDLGVVVPAALDYWGQGTTVTVSS
# VL: B10 VL with R24Q, S28D, S31N, Y32H, G50D, T51A, Y53N, A55E, T56A, Q100G
# notes: IgG format
# B12: MAdCAM Antibody Table 2 clone 73 (antibody, V domains shown)
# VH: QVQLVQSGAEVKKPGASVKVSCKASGYTFTSNYVHWVRQAPGQGLEWMGRINPHSGDTSYAQKFQGRVTMTRDTSTSTVYMELSSLRSEDTAVYYCARAGQLWSDWYFDLWGRGTLVTVSS
# VL: B10 VL with R24Q, S28D, S30R, S31N, G50A, T51A, S52T, Y53A, A55R, T94H
# notes: IgG format
# B13: MAdCAM Antibody Table 2 clone 71 (antibody, V domains shown)
# VH: QVQLVQSGAEVKKPGASVKVSCKASGYTFTSYYMHWVRQAPGQGLEWMGIINPSGGSTSYAQKFQGRVTMTRDTSTSTVYMELSSLRSEDTAVYYCARDSVAGTGGRYYGMDVWGQGTLVTVSS
# VL: DIQMTQSPSSLSASVGDRVTITCRASQGISNYFAWYQQKPGKAPKLLIYAASSLQGGVPSRFSGSGSGTDFTLTISSLQPEDFATYYCQQSYSLPYTFGQGTKLEIK
# notes: IgG format
# B14: MAdCAM Antibody Table 2 clone 81 (antibody, V domains shown)
# VH: EVQLLESGGGLVKPGGSLRLSCAASGFAFSSHWMHWVRQAPGKGLEWVAGTSGSGESRDYADFVKGRFTISRDDSKNTLYLQMNSLKTEDTAVYYCARETYYYYYMDVWGKGTTVTVSS
# VL: B13 VL with F33L, A50D, S52A, S53N, Q55E, Y92D, S93I, L94F, Y96P, L104V
# notes: IgG format
# B15: MAdCAM Antibody Table 2 clone 77 (antibody, V domains shown)
# VH: EVQLLESGGGLVQPGGSLRLSCAASEFTFSNAWMSWVRQAPGKGLEWVASISSTSAYIDYADSVKGRFTISRDNSKNTLYLQMNSLRAEDTAVYYCAREVVGATTFDYWGQGTLVTVSS
# VL: DIQMTQSPSSLSASVGDRVTITCRASQSISTWLAWYQQKPGKAPKLLIYAASSLQSGVPSRFSGSGSGTDFTLTISSLQPEDFATYYCQQANAFPPTFGQGTRLEIK
# notes: IgG format
# Biological target: T1, human MAdCAM expressed on cells
# Assay: cell binding
row,binding result,Binder
1,binds,B1
2,binds,B2
3,binds,B3
4,binds,B4
5,binds,B5
6,binds,B6

# Biological target: T2, mouse MAdCAM expressed on cells
# Assay: cell binding
row,binding result,Binder
1,no binding,B1
2,no binding,B2
3,no binding,B3
4,no binding,B4
5,no binding,B7
6,no binding,B8
7,no binding,B5
8,no binding,B9
9,no binding,B6

# Biological target: T1, human MAdCAM expressed on cells
# Assay: cell binding
# Remark: another data set of the same source
row,binding result,Binder
1,binds,B10
2,binds,B11
3,binds,B12
4,binds,B13
5,binds,B14
6,binds,B15

# Biological target: T2, mouse MAdCAM expressed on cells
# Assay: cell binding
# Remark: another data set of the same source
row,binding result,Binder
1,no binding,B10
2,no binding,B11
3,no binding,B12
4,no binding,B13
5,binds,B14
6,binds,B15
